# Data reported in the supplement of paper PMC10126150.
# ± gives the standard deviation of the averaged measurements.
# Test system: ATP
# Assay: switch fluorescence ratio, 500 uM ATP over buffer (Cy3 cluster intensity, sum of 5 cycles each) (fold (ratio)); higher = stronger signal-on switching upon ATP binding; sequences stand for … in TCGTCGGCAGCGTCAGATGTGTATAAGAGACAGTTTTTTTTTTTTTTTTTTTTTTTTT…TC
# Settings: aptamer strand: ATP DNA aptamer (quencher-CACCTGGGGGAGTATTGCGGAGGAAGG + anchor), 100 nM annealed; ATP concentration: 500 uM
# In short: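 Cy3-labelled switching-strand clusters on a modified Illumina MiSeq flow-cell were annealed to 100 nM quencher-labelled ATP aptamer, imaged in selection buffer, then imaged after 15 min with 500 uM ATP at 22 °C. Five buffer/ATP cycles ran, with NaOH stripping and re-annealing between them. The fluorescence ratio is summed target-cycle over summed buffer-cycle Cy3 intensity per cluster, averaged per switch-domain sequence. Clusters outside 100-1000 RFU were excluded.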
# 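Note: ATP exposure 15 min at 22 °C before imaging.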
row,Sequence,switch fluorescence ratio
1,CCCCTGTACT,1.227 ± 0.0074
2,CCCGAGGGGT,1.019 ± 0.0065
3,CCCGAGTGGG,0.992 ± 0.054
4,CCCGCATGAT,5.66 ± 0.2
5,CCCGCGGTTA,1.23 ± 0.032
6,CCCGGAGGCC,0.961 ± 0.034
7,CCCGGCATCT,1.2197 ± 0.00016
8,CCCGGGAATC,1.06 ± 0.059
9,CCCGGGATAT,1.06 ± 0.056
10,CCCGTGCCAG,1.02 ± 0.025
11,CCCGTTTTTG,0.986 ± 0.014
12,CCCTGTCGGC,0.997 ± 0.037
13,CCCTGTGAAA,0.975 ± 0.028
14,CCCTTGGGGG,1.01 ± 0.014
15,CCCTTGTGTG,1.43 ± 0.051
16,CCGAAAATAG,3.58 ± 0.48
17,CCGAACTATG,1.135 ± 0.0027
18,CCGAACTGGT,1.1 ± 0.05
19,CCGAATGAGG,0.995 ± 0.032
20,CCGAGACCGC,2.71 ± 0.2
21,CCGAGAGGGG,0.999 ± 0.041
22,CCGAGATTGC,1.95 ± 0.14
23,CCGAGGGAGA,1.25 ± 0.024
24,CCGAGGGCGC,1.2 ± 0.031
25,CCGAGGGGGA,1.26 ± 0.17
26,CCGAGGGTTA,1.34 ± 0.12

row,Sequence,switch fluorescence ratio
1,CCGAGGTTTT,1.33 ± 0.22
2,CCGAGTGCAG,2.24 ± 0.33
3,CCGATACGGT,1.08 ± 0.034
4,CCGATAGCGT,2.81 ± 0.45
5,CCGATTAATA,1.34 ± 0.028
6,CCGATTGGTA,1.027 ± 0.0057
7,CCGCAGCGGA,2.12 ± 0.27
8,CCGCAGGGGT,3.1 ± 2.8
9,CCGCCACCTG,1.56 ± 0.059
10,CCGCGGGGGG,1.08 ± 0.088
11,CCGCGGGTTG,1.05 ± 0.02
12,CCGCGGTCGT,1.3 ± 0.085
13,CCGCTATTGT,2.77 ± 0.4
14,CCGGAACGGT,0.986 ± 0.031
15,CCGGACGGAA,1.12 ± 0.071
16,CCGGAGAGTT,1.58 ± 0.11
17,CCGGAGGAGA,1.06 ± 0.017
18,CCGGATGTTG,0.987 ± 0.028
19,CCGGCTTAGA,1.14 ± 0.2
20,CCGGGAGCCG,1.023 ± 0.0053
21,CCGGGATCAG,1.09 ± 0.035
22,CCGGGATTTT,1.09 ± 0.13
23,CCGGGCAGAG,1.96 ± 0.071
24,CCGGGCCATC,2.3 ± 0.038
25,CCGGGCGAGC,1.08 ± 0.059
26,CCGGGCGTCG,1.26 ± 0.31

row,Sequence,switch fluorescence ratio
1,CCGGGCTTAG,1.28 ± 0.047
2,CCGGGGGAAG,1.04 ± 0.035
3,CCGGGGGATT,1.4 ± 0.49
4,CCGGGGGCAG,1.105 ± 0.0064
5,CCGGGGGCCT,1.08 ± 0.032
6,CCGGGGGCGG,1.01 ± 0.015
7,CCGGGGGCTC,1.87 ± 0.97
8,CCGGGGGCTT,1.22 ± 0.019
9,CCGGGGGGCT,1.09 ± 0.043
10,CCGGGGGTGC,1.24 ± 0.27
11,CCGGGGTAGG,1.04 ± 0.024
12,CCGGGGTCCG,1.13 ± 0.041
13,CCGGGGTCGC,1 ± 0.026
14,CCGGGGTTAT,1.119 ± 0.0047
15,CCGGGGTTGG,1 ± 0.012
16,CCGGGGTTGT,1.16 ± 0.22
17,CCGGGTCAGC,1.21 ± 0.026
18,CCGGGTGAAG,1.07 ± 0.063
19,CCGGGTGGTT,1.02 ± 0.08
20,CCGGGTTCGC,0.998 ± 0.083
21,CCGGTACTTT,1.05 ± 0.016
22,CCGGTATTGT,1.03 ± 0.037
23,CCGGTCTAGC,1.14 ± 0.041
24,CCGGTGGATT,1.21 ± 0.3
25,CCGGTGTGAG,1.04 ± 0.021
26,CCGGTTAAGG,1 ± 0.05

row,Sequence,switch fluorescence ratio
1,CCGGTTACGT,1.17 ± 0.2
2,CCGGTTAGG,0.998 ± 0.045
3,CCGGTTATAA,1.278 ± 0.009
4,CCGGTTTGTC,1.02 ± 0.044
5,CCGTAGAGTT,1.29 ± 0.031
6,CCGTAGTGGT,2.9 ± 1.4
7,CCGTATAAGG,1.023 ± 0.0038
8,CCGTATGGAG,0.9959 ± 0.002
9,CCGTCGGTCG,1 ± 0.023
10,CCGTCTAATA,1.42 ± 0.49
11,CCGTGCGAAA,2.99 ± 0.59
12,CCGTGGGTGT,1.26 ± 0.15
13,CCGTGGTTTA,1 ± 0.01
14,CCGTTAGAGG,1.01 ± 0.038
15,CCGTTAGGCG,0.987 ± 0.029
16,CCGTTAGTGG,1.04 ± 0.042
17,CCGTTATGCA,1.26 ± 0.018
18,CCGTTCAGAA,1.08 ± 0.019
19,CCGTTTCGGT,0.976 ± 0.014
20,CCGTTTGTTT,1.005 ± 0.005
21,CCGTTTTAGT,1.02 ± 0.039
22,CCTAATGGGC,1.014 ± 0.0092
23,CCTACTTCCA,1.103 ± 0.0013
24,CCTAGCGCGC,1.09 ± 0.043
25,CCTAGGCCCG,1.03 ± 0.053
26,CCTAGGGGGT,1.02 ± 0.029

row,Sequence,switch fluorescence ratio
1,CCTAGGGTGT,2.12 ± 0.32
2,CCTAGGGTTT,1 ± 0.038
3,CCTATACGGG,1.03 ± 0.049
4,CCTATATAGA,0.999 ± 0.029
5,CCTATGGTTC,1.07 ± 0.053
6,CCTATTACGA,1.04 ± 0.015
7,CCTATTATTA,1.02 ± 0.028
8,CCTATTCCGG,1.05 ± 0.03
9,CCTATTCGTT,1.0064 ± 0.0008
10,CCTATTTTTT,1.01 ± 0.034
11,CCTCAATGGT,1.39 ± 0.045
12,CCTCACCCTT,1.13 ± 0.013
13,CCTCACTAGT,1.0949 ± 8.2e-05
14,CCTCATCTTG,1.018 ± 0.0048
15,CCTCGGGGGG,1.06 ± 0.1
16,CCTCTGGAGG,1.09 ± 0.013
17,CCTCTTGAGG,0.978 ± 0.016
18,CCTGAAACCT,1.51 ± 0.48
19,CCTGAGATAC,1.88 ± 1
20,CCTGAGGTTC,1.03 ± 0.061
21,CCTGAGTTC,0.996 ± 0.031
22,CCTGGAAAGT,0.985 ± 0.0074
23,CCTGGCATGC,2.56 ± 0.24
24,CCTGGCATTG,1.18 ± 0.09
25,CCTGGCATTT,2.2 ± 1.4
26,CCTGGCCAGC,0.978 ± 0.015

row,Sequence,switch fluorescence ratio
1,CCTGGCTATC,3.44 ± 0.91
2,CCTGGCTCAT,1.06 ± 0.037
3,CCTGGGATT,1.02 ± 0.011
4,CCTGGGGAAA,0.946 ± 0.021
5,CCTGGGGATT,1.07 ± 0.18
6,CCTGGGGGTC,1.03 ± 0.024
7,CCTGGGGTAT,1.09 ± 0.05
8,CCTGGGGTCG,1.05 ± 0.05
9,CCTGGGTCGA,1.022 ± 0.0044
10,CCTGGGTGAA,1.2 ± 0.03
11,CCTGGGTTAG,0.998 ± 0.017
12,CCTGGTCCTA,0.9879 ± 0.0074
13,CCTGGTGACG,1.035 ± 0.002
14,CCTGGTTAGG,0.983 ± 0.013
15,CCTGTACCAC,1.07 ± 0.019
16,CCTGTGGGGG,0.993 ± 0.028
17,CCTGTGGTGC,1.342 ± 0.0072
18,CCTGTGTCCG,1.12 ± 0.052
19,CCTGTTAAAT,1.05 ± 0.022
20,CCTGTTGCGA,2.66 ± 0.52
21,CCTGTTGGTT,0.955 ± 0.033
22,CCTGTTTCAG,1.05 ± 0.018
23,CCTTAACGGC,1.06 ± 0.015
